In publication PMC3437207, “G-quadruplex recognition activities of E. Coli MutS”:
Where a chain is given by its changes, count along the chain named.

T1: MutS (Escherichia coli, UniProt P23909 1-853)
T1 sequence: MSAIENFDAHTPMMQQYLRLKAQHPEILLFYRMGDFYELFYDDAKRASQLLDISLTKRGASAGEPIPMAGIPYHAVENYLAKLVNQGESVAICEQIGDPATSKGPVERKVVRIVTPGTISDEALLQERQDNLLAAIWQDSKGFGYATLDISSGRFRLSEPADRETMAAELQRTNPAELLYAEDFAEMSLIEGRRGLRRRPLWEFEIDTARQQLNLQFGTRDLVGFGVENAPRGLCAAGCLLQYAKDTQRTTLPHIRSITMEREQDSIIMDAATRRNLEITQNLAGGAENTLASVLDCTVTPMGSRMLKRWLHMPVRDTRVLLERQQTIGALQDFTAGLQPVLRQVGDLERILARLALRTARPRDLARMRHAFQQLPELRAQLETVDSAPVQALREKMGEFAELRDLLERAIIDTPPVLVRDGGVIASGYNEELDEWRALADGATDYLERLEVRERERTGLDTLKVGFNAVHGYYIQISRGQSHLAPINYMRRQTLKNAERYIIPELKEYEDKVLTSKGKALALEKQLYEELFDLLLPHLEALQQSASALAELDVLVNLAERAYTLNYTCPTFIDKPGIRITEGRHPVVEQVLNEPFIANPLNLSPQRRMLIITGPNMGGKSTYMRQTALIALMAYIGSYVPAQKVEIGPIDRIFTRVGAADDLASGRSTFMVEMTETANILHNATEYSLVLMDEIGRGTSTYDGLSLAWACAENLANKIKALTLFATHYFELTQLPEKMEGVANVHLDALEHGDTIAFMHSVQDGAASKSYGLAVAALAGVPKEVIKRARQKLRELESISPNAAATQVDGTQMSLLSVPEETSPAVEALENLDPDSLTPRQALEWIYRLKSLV

B1: Homoduplex (dsDNA)
DNA 1: CTAGCAAGCTTTCAATTCTAGAAATTCGGC
DNA 2: GCCGAATTTCTAGAATTGAAAGCTTGCTAG
B2: G-T mismatch heteroduplex (dsDNA)
DNA 1: B1 DNA 1 with A14G
DNA 2: B1 DNA 2

Key:
MutS [1] = molecular target: T1, MutS; experiment: EMSA; 38-150 nM protein; 20 mM Tris pH 7.6, 5 mM MgCl2, 1 mM DTT, 50 ug/ml BSA, 10 mM KCl, 200 fmol homoduplex competitor, 10-20 fmol labeled DNA in 20 ul; 6% native PAGE 0.5X TBE with; conditions: protein: recombinant; tags: His; chain copies: 2; label: 32P; blunt
MutS [2] = molecular target: T1, MutS; experiment: EMSA; no nucleotide; 5 mM Mg2+; homoduplex competitor; 20 mM Tris pH 7.6, 5 mM MgCl2, 1 mM DTT, 50 ug/ml BSA, 10 mM KCl, 200 fmol homoduplex competitor, 10-20 fmol labeled DNA in 20 ul; 6% native PAGE 0.5X TBE with; conditions: protein: recombinant; tags: His; chain copies: 2; label: 5' 32P; blunt; single G-T mismatch at position 14 of strand 1

Row | Binder | binding result (MutS [1]) | binding signal (MutS [2])
1 | B1 | no binding | 
2 | B2 |  | > 2 fold Kd of MutS for TP-G4
